1 substance from article doi:10.1101/2021.04.18.440036 can be followed below.

The target in the test is protective antigen (PA) prepore (Bacillus anthracis). The experiment in a line: cryo-EM structure.

“And” between values parts separate entries of the source, which are not always exact repeats. Identical values can stand only once.

By stoichiometry N is commonly meant a count of units in the complex or per binding partner. With “protective antigen (PA) prepore (complex)”, the stoichiometry N was 7 and 8.
